The text below walks through data of patent US20180214548A1 (SHANGHAI YUNYI HEALTHCARE AND TECHNOLOGY, published 2018).

Experiment [1] deals with T1, cyno PD-1^ECD-hFc protein (cyno monkey, UniProt B0LAJ3 25-167).
T1 construct: Prepared by the method for Immunogen A; also called Cyno Monkey PD-1^ECD-hFc; cyno monkey PD-1-hFc; not shown: human IgG Fc fragment (hFc) and its junction to the ECD
Nature of the experiment: ELISA, coated cyno PD-1ECD-hFc; antibody 1 nM. As to the method:
(§1) 100 uL of the diluted recombinant proteins were added to each well of 96-well plate. The plates were sealed with plastic film and incubated at 4° C. overnight. The plates were washed twice with wash buffer (PBS+0.01% (v/v) Tween20), and incubated with blocking buffer (PBS+0.01% (v/v) Tween20+1% (w/w) BSA) at room temperature for 2 hours. The blocking buffer was aspirated away, and 100 uL of purified anti-PD-1 antibodies were added to each well and incubated for 2 hours at 37° C. The plates were washed three times with wash buffer (PBS+0.01% (v/v) Tween20). HRP-conjugated secondary antibody (Sigma) was added to each well and incubated for 2 hours at 37° C. After the plates were washed three times with wash buffer, 100 uL TMB substrate was added to each well and incubated for 30 minutes at room temperature. 100 uL stop solution (0.1N HCl) was added to each well to stop the reaction. The absorbance at 450 nm was measured with an ELISA plate reader (384plus SpectraMax, Molecular Devices).
In general terms: ELISA stands for enzyme-linked immunosorbent assay.

The target in experiment [2] is T2, full length human PD-1 on cells (human, UniProt Q15116 25-288).
T2 construct: Also used here for PD-1 on human T cells/PBMC; also called CHO-K1-hPD-1; hPD-1
Nature of the experiment: flow cytometry, CHO-K1-hPD-1 cells; antibody 0.0316 nM. From the text: (§2) CHO-K1 cells were stably transfected with pIRES plasmid containing the nucleic acid sequence encoding full length human PD-1 (see Example 2, step 2) to generate CHO-K1 cells stably expressing human PD-1 (herein referred to as CHO-K1-hPD-1 cells). Other CHO-K1 were stably transfected with pIRES plasmid containing the nucleic acid sequence encoding full length cyno PD-1 to generate CHO-K1 cells stably expressing cyno PD-1 (herein referred to as CHO-K1-cPD-1 cells). CHO-K1-hPD-1 and CHO-K1-cPD-1 cells were cultured and expanded in T-75 culture flasks to 90% confluence. The culture media was aspirated, and the cells were washed twice with HBSS (Hanks Balanced Salt Solution, Invitrogen). The cells were treated with enzyme-free cell dissociation solution (Versene solution, Invitrogen) and collected. The cells were then washed twice with HBSS, cell counts were determined, and cells were resuspended with HBSS at 2×10⁶ cells/mL. Goat serum was added to the cell suspension to a final concentration of 1%, and the cells were blocked for 30 minutes on ice and then washed twice with HBSS. The cells were collected after centrifugation and resuspended in FACS buffer (HBSS+1% BSA, v/v) at 2×10⁶ cells/mL. 100 uL of the cell suspension were then added to each well of 96-well plate. 100 uL of purified anti-PD-1 antibodies from Example 2 were added to each well of the 96-well plate and incubated for 2 hours on ice. […] The samples were washed three times with FACS buffer, and 100 uL fixation buffer (4% paraformaldehyde v/v) were added to each well and incubated for 10 minutes. The cells were then washed twice with FACS buffer and resuspended in 100 uL FACS buffer. The mean fluorescence intensity (MFI) was determined using FACS Calibur (BD), and the results are shown in FIGS. 7-8 and in Tables 10-11.
(In flow cytometry, cells or beads pass a laser one at a time.)

For experiment [3], the target named is T3, human PD-1^ECD-hFc protein (Immunogen A) (human, UniProt Q15116 25-167).
T3 construct: Biotinylated for the Octet assay; also called PD-1-hFc; hPD-1^ECD-hFc; not shown: human IgG Fc fragment (hFc)
Nature of the experiment: protein-based receptor-ligand blocking ELISA: coated PD-1ECD-hFc, blocked ligand biotinylated PD-L2ECD, streptavidin-HRP. Here is the method:
Purified PD-1^ECD-hFc (Example 2) was diluted with PBS to a final concentration of 1.0 ug/mL, and 100 uL diluted PD-1^ECD-hFc were added to each well of a 96-well plate that was then sealed with plastic film and incubated at 4° C. overnight. The plate was washed twice with wash buffer (PBS+0.01% (v/v) Tween 20) and incubated with blocking buffer (PBS+[…]) at room temperature for 2 hours. The blocking buffer was aspirated, and 50 uL purified anti-PD-1 antibodies from Example 2 were added to each well of 96-well plate. […] The plate was washed three times with wash buffer (PBS+0.01% (v/v) Tween 20). 100 uL HRP-conjugated streptavidin (Sigma) were then added to each well and incubated at 37° C. for 2 hours. The plate was then washed three times with wash buffer, and 100 uL TMB substrate were added to each well. After 30 minutes of incubation at room temperature, the reaction was stopped by adding 100 uL stop solution (0.1N HCl). The absorbance at OD450 nm was measured with an ELISA plate reader (384plus SpectraMax, Molecular Devices).

The target in experiment [4] is T2, full length human PD-1 on cells. Briefly: cell-based receptor-ligand blocking, flow cytometry: CHO-K1-hPD-1 cells, blocked ligand biotinylated PD-L1-Fc, streptavidin-Alexa 488. As to the method:
CHO-K1-hPD-1 cells were cultured and expanded in T-75 culture flasks to 60-80% confluence. The culture media was aspirated, and the cells were washed twice with PBS. The cells were treated with TrypLE™ Express (Invitrogen) and collected. Trypsin was neutralized by the addition of 8 mL culture medium, and cell counts were determined. […] The cells were blocked for 15 minutes at 37° C. Meanwhile, the wells of 96-well round-bottom plates were blocked with 200 uL blocking buffer for 1 hour at 37° C. The blocking buffer was discarded, and 200 uL cells were dispensed to each well of the 96-well plates (2×10^5 cells/well). The plates were centrifuged at 500 g for 5 minutes, and the supernatants were discarded. The cells were resuspended in 100 uL antibody prepared in blocking buffer. […] The plates were incubated at 4° C. for 90 minutes and washed twice with 200 uL blocking buffer. […] The plates were washed three times with blocking buffer and resuspended in 200 uL blocking buffer. The mean fluorescence intensity (MFI) was determined using FACS Calibur (BD).

The target is the same in experiment [5]. Nature of the experiment: flow cytometry, CHO-K1-hPD-1 cells; antibody 0.316 nM.
Excerpt: as §2

Experiment [6] shares this target. Briefly: flow cytometry, CHO-K1-hPD-1 cells; antibody 31.6 nM.
Excerpt: as §2

Experiment [7] has the same target. Nature of the experiment: flow cytometry, CHO-K1-hPD-1 cells; antibody 3.16 nM.
Excerpt: as §2

Experiment [8] deals with T3, human PD-1^ECD-hFc protein (Immunogen A). Nature of the experiment: ELISA, coated human PD-1ECD-hFc; antibody 0.0001 nM. Here is the method:
as §1

T1 sequence (B0LAJ3 entry or part of it limits assumed): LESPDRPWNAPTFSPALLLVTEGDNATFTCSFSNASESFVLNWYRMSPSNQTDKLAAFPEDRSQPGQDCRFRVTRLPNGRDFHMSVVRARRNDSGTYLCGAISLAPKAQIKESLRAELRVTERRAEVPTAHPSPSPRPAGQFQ
T2 sequence (Q15116 25-288 limits assumed): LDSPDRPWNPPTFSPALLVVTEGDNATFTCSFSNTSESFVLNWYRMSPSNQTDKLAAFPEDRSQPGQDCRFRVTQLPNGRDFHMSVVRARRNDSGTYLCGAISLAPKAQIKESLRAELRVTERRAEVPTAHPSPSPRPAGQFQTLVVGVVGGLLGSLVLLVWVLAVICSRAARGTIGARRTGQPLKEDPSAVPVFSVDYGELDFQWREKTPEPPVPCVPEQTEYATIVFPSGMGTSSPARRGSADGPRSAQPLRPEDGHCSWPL
T3 sequence (Q15116 25-167): as the sequence (B0LAJ3 entry or part of it limits assumed) above, with E2D, A10P, L19V, A35T, R75Q counted along it

B1: chimeric anti-PD-1 antibody 76G5B3 (antibody, V domains shown)
VH: QVQLVESGGGVVQPGRSLRLSCAASGFTFSDYGFHWVRQAPGKGLEWVAVIWYDGSNEYYTDSVKGRFTISRDNSKNTLYLQMNSLRAEDTAMYFCVVNPFDYWGQGTLVTVSS
VL: DIQMTQSPSSLSAFVGDRVTITCRASQGINHYLAWYQQKPGKAPNLLILAASTLLSGVPSRFGGRGSGTDFTLIISSLQPEDVATYYCQKYDSAPYTFGQGTKLEIK
notes: Purified from hybridoma of Harbour H2L2 mice: human variable regions, rat constant regions
With B1, in experiment [1], the OD450 nm is 1.4. For the same molecule, the Mean fluorescence intensity in experiment [2] was found to be 2.2; in experiment [5], 76.8; in experiment [6] it was 466; in experiment [7], 280. Also, the figures for the “IC50 (read off the curve)” value in experiment [3] and in experiment [4] were roughly 1 nM and roughly 0.8 nM, respectively.

B2: chimeric anti-PD-1 antibody 21G8F11 (antibody, V domains shown)
VH: EVQLLESGGGLAQPGGSLRLSCAASGFSFNTYLMHWVRQAPGKGLEWVSAISGGGGNTYYADSVKGRFTISRDNSKNTLYLQMNSLRAEDTAVYYCAKENRIPVAPFDYWGQGTLVTVSS
VL: DIQMTQSPSTLSASVGDRVTITCRASQSISTWLAWYQQKPGKAPKLLIYKASSLESGVPSRFSGSGSGTEFTLTISSLQPDDLATYYCQQYNSFSWTFGQGTKVEIK
notes: as for B1
On to B2, for which the OD450 nm is 2.45 in experiment [1] and 0.433 in experiment [8]. Also, the “IC50 (read off the curve)” value in experiment [3] is roughly 0.6 µg/mL; in experiment [4], roughly 6 nM.

B3: chimeric anti-PD-1 antibody 32B5C7 (antibody, V domains shown)
VH: EVQLLESGGGLVQPGGSLRLSCAASGFTFSSYAMSWVRQAPGKGLEWVSTISGSGGTTYYADSVKGRFTISRDNSKNTLYLQMNSLRAEDTAVYYCTLTGDPDYWGQGTLVTVSS
VL: EIVLTQSPATLSLSPGERATLSCRASQSVSSYLAWYQQKPGQAPRLLIYDASKRATGIPARFSGSGSGTDFTLTISSLEPEDFAVYYCQQRNNWPLTFGGGTKVEIK
notes: as for B1
The molecule B3 came in with an OD450 nm in experiment [1] of 1.03. For the same molecule, the Mean fluorescence intensity in experiment [2] was determined as 2.1; in experiment [5], 26.1; in experiment [6], 241; in experiment [7], 97.5. Also, the “IC50 (read off the curve)” value is roughly 2 nM in experiment [3] and roughly 6 nM in experiment [4].
